Where a chain is given by its changes, count along the chain named.
What was measured:
Assay in all cases: ELISA, antibody coated, OX40-ECD.His mutant supernatant; relative to silent alanine substitutions;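 further: captured OX40 mutant protein detected with HRP-labelled anti-His antibody, absorbance read-out, scaled to the mean signal of control mutants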
human OX40-ECD.His F133A = target: T1, human OX40-ECD.His F133A (human, UniProt P43489 29-214)
T1 construct: extracellular domain; not shown: C-terminal His-tag
T1 sequence (looked up): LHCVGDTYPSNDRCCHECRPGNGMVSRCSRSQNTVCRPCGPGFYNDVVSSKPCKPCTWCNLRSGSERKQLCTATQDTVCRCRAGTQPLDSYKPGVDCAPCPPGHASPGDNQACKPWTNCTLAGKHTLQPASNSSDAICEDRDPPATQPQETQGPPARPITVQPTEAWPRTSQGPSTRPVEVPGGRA

human OX40-ECD.His Q114A = target: T2, human OX40-ECD.His Q114A (human, UniProt P43489 29-214)
T2 construct: extracellular domain; not shown: C-terminal His-tag
T2 sequence (looked up): T1 sequence (looked up) with Q86A, A105F

human OX40-ECD.His T100A = target: T3, human OX40-ECD.His T100A (human, UniProt P43489 29-214)
T3 construct: extracellular domain; not shown: C-terminal His-tag
T3 sequence (looked up): T1 sequence (looked up) with T72A, A105F

human OX40-ECD.His Q156A = target: T4, human OX40-ECD.His Q156A (human, UniProt P43489 29-214)
T4 construct: extracellular domain; not shown: C-terminal His-tag
T4 sequence (looked up): T1 sequence (looked up) with A105F, Q128A

human OX40-ECD.His H153A = target: T5, human OX40-ECD.His H153A (human, UniProt P43489 29-214)
T5 construct: extracellular domain; not shown: C-terminal His-tag
T5 sequence (looked up): T1 sequence (looked up) with A105F, H125A

human OX40-ECD.His T113A = target: T6, human OX40-ECD.His T113A (human, UniProt P43489 29-214)
T6 construct: extracellular domain; not shown: C-terminal His-tag
T6 sequence (looked up): T1 sequence (looked up) with T85A, A105F

human OX40-ECD.His W86A = target: T7, human OX40-ECD.His W86A (human, UniProt P43489 29-214)
T7 construct: extracellular domain; not shown: C-terminal His-tag
T7 sequence (looked up): T1 sequence (looked up) with W58A, A105F

human OX40-ECD.His G68A = target: T8, human OX40-ECD.His G68A (human, UniProt P43489 29-214)
T8 construct: extracellular domain; not shown: C-terminal His-tag
T8 sequence (looked up): T1 sequence (looked up) with G40A, A105F

human OX40-ECD.His P83A = target: T9, human OX40-ECD.His P83A (human, UniProt P43489 29-214)
T9 construct: extracellular domain; not shown: C-terminal His-tag
T9 sequence (looked up): T1 sequence (looked up) with P55A, A105F

human OX40-ECD.His K142A = target: T10, human OX40-ECD.His K142A (human, UniProt P43489 29-214)
T10 construct: extracellular domain; not shown: C-terminal His-tag
T10 sequence (looked up): T1 sequence (looked up) with A105F, K114A

Fold Change (human OX40-ECD.His F133A): 0.627 | Fold Change (human OX40-ECD.His Q114A): 0.79 | Fold Change (human OX40-ECD.His T100A): 0.557 | Fold Change (human OX40-ECD.His Q156A): 0.97 | Fold Change (human OX40-ECD.His H153A): 0.997 | Fold Change (human OX40-ECD.His T113A): 0.784 | Fold Change (human OX40-ECD.His W86A): 0.842 | Fold Change (human OX40-ECD.His G68A): 0.998 | Fold Change (human OX40-ECD.His P83A): 0.918 | Fold Change (human OX40-ECD.His K142A): 0.921
B1: 1.134.9-u1-IgG1L (antibody, V domains shown)
VH: QVQLQESGPGLVKPSGTLSLTCAVSGGSISSYNWWSWVRQPPGKGLEWIGEIYHGGNTNYNPSLKSRVTMSVDNSKNQFSLKLSSVTAADTAVYYCARAPGDWGGSPYFDFWGQGTLVTVSS
VL: SSELTQDPAVSVALGQTVRITCQGDNLRTYYASWYQQKPGQAPILLIYGRNKRPSGIPDRFSGSSSGNTASLTITGAQAEDEAAYYCNSRDSSGNPVVFGGGTKLTVL
notes: fully human IgG1, lambda
